What was measured:
[1] = target: EGFP-rGR as used in the number and brightness assay (Fig 7) and in the ccN&B with alternative ligands (Fig 9) (rat) (UniProt P06536); experiment: number and brightness assay (N&B); living 3617 cells, transiently transfected, nucleoplasm, 100 nM corticosterone; average molecular brightness (ε) in one channel with different co-expressed partners
[2] = target: EGFP-rGR as used in the number and brightness assay (Fig 7) and in the ccN&B with alternative ligands (Fig 9) (rat) (UniProt P06536); experiment: cross-correlation number and brightness assay (ccN&B); living 3617 cells +tetracycline, transiently transfected, nuclear Bcc relative to 100 nM corticosterone (100%); 100 nM of alternative ligands (cortisol, prednisolone, dexamethasone, aldosterone) or dexamethasone 10 nM + aldosterone 10 nM, aldosterone 10 nM + RU486 1 μM, corticosterone 10 nM + RU486 1 μM

Row | Substance | average molecular brightness (ε) of EGFP-rGR paired with mCherry-rGR, percent of the +mCherry reference [1] [%] | stoichiometry N [1] | Bcc value with 100 nM cortisol, percent of the Bcc value with corticosterone [2] [%] | Bcc value with 100 nM prednisolone, percent of the Bcc value with corticosterone [2] [%]
1 | EGFP-rGR as used in the number and brightness assay (Fig 7) and in the ccN&B with alternative ligands (Fig 9) (from UniProt P06536 1-795) (receptor) | 63.3 | 2 | – | –
2 | mCherry-tagged rat mineralocorticoid receptor, transiently expressed in 3617 cells (from UniProt P22199 1-981) | – | – | 70 | 60

Reference: article PMC6953809
